Results on four molecules are retold here after patent publication US9243231B2, “Mutant cytochrome P450 2B6 proteins and uses thereof” (Institut National de la Santé et de la Recherche Médicale …, priority 2011, dated 2016).

In data set [1] the test system is TC1-Luc2 mouse pulmonary tumour cells. As to the kind of experiment: In vivo cytotoxicity assay, subcutaneous TC1 tumours in mice treated with CPA. Conditions: CPA 140 mg/kg i.p., C57Bl6 mice, FIG. 14. The protocol: To test the capacity of the triple mutant to enhance the response to CPA in vivo, a mouse model was used. Mouse pulmonary tumour cells (TC1-Luc2) were infected with a lentivirus vector carrying the CYP2B6TM-RED construct and injected subcutaneously into C57Bl6 mice. As a control, uninfected TC1 cells-were injected. TC1-Luc2 cells express luciferase, permitting tumour size to be monitored via bioluminescence.
In initial experiments, 10 mice were injected with CYP2B6TM-RED-TC1 cells and 10 were injected with uninfected TC1 cells. Tumour growth was monitored, and when the tumour size reached approximately 400 mm^3 half of the mice were treated with CPA via intraperitoneal injection at 140 mg/kg. untreated mice were sacrificed when tumour volume reached around 1500 mm^3.

A short description of data set [2]: CPA 4-hydroxylase activity in yeast microsomes. Format: biochemical. Conditions: for Vmax of CPA-4' hydroxylation / Km / CPA hydroxylase activity Vmax: yeast microsomes; for Vmax of CPA-4' hydroxylation / Km: FIG. 9; for Km: read-out: Km of CPA-4' hydroxylation; for CPA hydroxylase activity Vmax: Table 1. The text has this: CYP2B6 wt or CYP2B6TM alone or in fusion with RED were expressed in the MR) yeast strain, in which yeast NADPH cytochrome P450 reductase was constitutively expressed. The pYeDP60 plasmids were introduced into intact yeast cells based on a refined lithium acetate-mediated protocol as described in Truan et al, 1993, above. Yeast culture conditions were as described in Bellamine A, Gautier J C, Urban P, Pompon D (1994): Chimeras of the human cytochrome P450 1A family produced in yeast. Accumulation in microsomal membranes, enzyme kinetics and stability. Eur J Biochem 225:1005-13. Yeast microsomes were prepared based on the mechanical disruption method using glass beads as described in Bellamine A, Gautier J C, Urban P, Pompon D. (1994): Chimeras of the human cytochrome P450 1A family produced in yeast. Accumulation in microsomal membranes, enzyme kinetics and stability. Eur J Biochem 225:1005-13. The fluorometric determination of yeast microsomal CPA 4-hydroxylase was adapted from a technique described previously (Roy P, Yu […]. (1999): […] Drug Metab Dispos 27:655-66) for a 96-well microplate with several modifications. Incubations were carried out for 1 h at 28° C. in a total volume of 200 μl and included 100 mM sodium phosphate buffer, pH 7.4, 1 mM EDTA, 10 pmol of CYP2B6 wt or CYP2B6TM or CYP2B6TM-RED with different linkers (microsomal P450 content was spectrally determined by the method of Schoene […], von Oldershausen H F. (1972): Determination of drug metabolizing enzymes in needle biopsies of human liver. Eur J Clin Pharmacol 4:65-73) and 10 mM CPA. Reactions were initiated by adding the NADPH-generating system and stopped by the addition of 200 μl of 10% trichloroacetic acid. After centrifugation at 13,000 g and 4° C. for 15 min to pellet the proteins, 300 μl of the supernatant was transferred to a clean test tube containing 160 μl of the fluorescence mixture (6 mg of 3-aminophenol and 6 mg of hydroxylamine hydrochloride freshly dissolved in 1 ml of 1N HCl). […] After cooling to room temperature, fluorescence reading were performed on a Bio-tek FL600 microplate fluorescence reader (excitation at 350 nm and emission at 515 nm). […] Data were analyzed using Prism software (Graph-Pad Software, Inc., San Diego, Calif.) to calculate kinetic parameters (Km, Vmax), with Vmax values expressed as moles of product formed per minute, normalized to the moles of P450 included in each reaction (turnover number expressed as minutes^-1). Data shown were based on duplicate determinations for each data point.

The conditions of data set [3]: double mutant, earlier publication; cited from earlier work.

Entries after “also recorded” stand apart in the source; their conditions may differ.

With `O=P1(N(CCCl)CCCl)NCCCO1` (stereo not drawn) [CPA, cyclophosphamide], the “change in tumour volume after CPA, uninfected TC1 tumours” value in data set [1] is “only a modest effect on the uninfected tumour cells and did not produce an overall reduction in tumour volume; also recorded: slowed this rapid increase in uninfected tumour cells but obtained no reduction in overall tumour size”.

B1: CYP2B6TM: human CYP2B6 triple mutant with substitutions I114V, L199M and V477W (SEQ ID No 1) (protein, listed as Homo sapiens)
chain: MELSVLLFLALLTGLLLLLVQRHPNTHDRLPPGPRPLPLLGNLLQMDRRGLLKSFLRFREKYGDVFTVHLGPRPVVMLCGVEAIREALVDKAEAFSGRGKIAMVDPFFRGYGVVFANGNRWKVLRRFSVTTMRDFGMGKRSVEERIQEEAQCLIEELRKSKGALMDPTFLFQSITANIICSIVFGKRFHYQDQEFLKMMNLFYQTFSLISSVFGQLFELFSGFLKYFPGAHRQVYKNLQEINAYIGHSVEKHRETLDPSAPKDLIDTYLLHMEKEKSNAHSEFSHQNLNLNTLSLFFAGTETTSTTLRYGFLLMLKYPHVAERVYREIEQVIGPHRPPELHDRAKMPYTEAVIYEIQRFSDLLPMGVPHIVTQHTSFRGYIIPKDTEVFLILSTALHDPHYFEKPDAFNPDHFLDANGALKKTEAFIPFSLGKRICLGEGIARAELFLFFTTILQNFSMASPVAPEDIDLTPQECGWGKIPPTYQIRFLPR
Take B1: the “change in tumour volume after CPA, tumours expressing CYP2B6TM-RED” value in data set [1] is “dramatic reductions in tumour size”. The “affinity for CPA relative to wild-type enzyme” value in data set [2] (greater than wild-type) was 8 times. Also, the “Vmax compared with wild-type enzyme” value in data set [2] (in words) is “retaining the same Vmax”. Moreover, the “efficiency at metabolising CPA into cytotoxic metabolite relative to wild-type” value in data set [2] (more efficient than wild-type protein) came out at 10 times. Also, in data set [2], the “Vmax of CPA-4' hydroxylation” value came to 107.5 ± 3.4 min⁻¹; the Km (in general, the concentration of substrate that gives half-maximal velocity) worked out at 510 ± 80 µM; the “CPA hydroxylase activity Vmax” value is 105.5 nmol 4OH-CPA/min/nmol CYP2B6.

B2: CYP2B6wt: wild-type human cytochrome P450 2B6, without reductase (protein, UniProt P20813 1-491, looked up)
Cytochrome P450 2B6: MELSVLLFLALLTGLLLLLVQRHPNTHDRLPPGPRPLPLLGNLLQMDRRGLLKSFLRFREKYGDVFTVHLGPRPVVMLCGVEAIREALVDKAEAFSGRGKIAMVDPFFRGYGVIFANGNRWKVLRRFSVTTMRDFGMGKRSVEERIQEEAQCLIEELRKSKGALMDPTFLFQSITANIICSIVFGKRFHYQDQEFLKMLNLFYQTFSLISSVFGQLFELFSGFLKYFPGAHRQVYKNLQEINAYIGHSVEKHRETLDPSAPKDLIDTYLLHMEKEKSNAHSEFSHQNLNLNTLSLFFAGTETTSTTLRYGFLLMLKYPHVAERVYREIEQVIGPHRPPELHDRAKMPYTEAVIYEIQRFSDLLPMGVPHIVTQHTSFRGYIIPKDTEVFLILSTALHDPHYFEKPDAFNPDHFLDANGALKKTEAFIPFSLGKRICLGEGIARAELFLFFTTILQNFSMASPVAPEDIDLTPQECGVGKIPPTYQIRFLPR
As for B2, in data set [2], the “Vmax of CPA-4' hydroxylation” value is 107.3 ± 3.74 min⁻¹, the Km was found to be 4330 ± 500 µM and the “CPA hydroxylase activity Vmax” value was 62.5 nmol 4OH-CPA/min/nmol CYP2B6.

B3: I114V/V477W: previously published CYP2B6 double active site mutant (Nguyen et al 2008) (protein, UniProt P20813 1-491, looked up, variant I114V V477W)
Cytochrome P450 2B6: MELSVLLFLALLTGLLLLLVQRHPNTHDRLPPGPRPLPLLGNLLQMDRRGLLKSFLRFREKYGDVFTVHLGPRPVVMLCGVEAIREALVDKAEAFSGRGKIAMVDPFFRGYGVVFANGNRWKVLRRFSVTTMRDFGMGKRSVEERIQEEAQCLIEELRKSKGALMDPTFLFQSITANIICSIVFGKRFHYQDQEFLKMLNLFYQTFSLISSVFGQLFELFSGFLKYFPGAHRQVYKNLQEINAYIGHSVEKHRETLDPSAPKDLIDTYLLHMEKEKSNAHSEFSHQNLNLNTLSLFFAGTETTSTTLRYGFLLMLKYPHVAERVYREIEQVIGPHRPPELHDRAKMPYTEAVIYEIQRFSDLLPMGVPHIVTQHTSFRGYIIPKDTEVFLILSTALHDPHYFEKPDAFNPDHFLDANGALKKTEAFIPFSLGKRICLGEGIARAELFLFFTTILQNFSMASPVAPEDIDLTPQECGWGKIPPTYQIRFLPR
As for B3, the “CPA-4-hydroxylation efficiency compared to wild-type enzyme” value in data set [3] is given as “four-fold increase”.
